Laboratory results reported in patent publication US6509033.

Molecular target: 'Empty' HLA-DR1 purified from insect cells expressing recombinant DR1 cDNA (human)

- Ki: 33 nM
B1: Invariant Chain (Ii) 98-121 (peptide)
peptide: LPKPPKPVSKMRMATPLLMQALPM
modifications: not checked
